Test [1] addresses T1, mouse ICOS-mFc (Chimerigen) (mouse, UniProt Q9WVS0 21-141, limits assumed).
T1 construct: Bought; also called recombinant mouse ICOS protein; mICOS; not shown: mouse Fc of the bought fusion
T1 sequence: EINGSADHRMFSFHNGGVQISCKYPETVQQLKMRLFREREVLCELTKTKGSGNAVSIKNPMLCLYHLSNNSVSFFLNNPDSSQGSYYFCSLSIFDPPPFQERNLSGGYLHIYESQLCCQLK
The experiment in a line: DELFIA ELISA on coated mouse ICOS-mFc, N=1. On the procedure:
(§1) Recombinant ICOS proteins, human ICOS-mFc or mouse ICOS-mFc (Chimerigen) were diluted in 1×PBS and added to Black Hi-bind plates (Griener) at 1 μg/ml, 50 μl/well. Recombinant PD-L1 proteins, human PD-L1-Flag-His or mouse-His were diluted in 1×PBS and added to Black Hi-bind plates (Griener) at 4 μg/ml, 50 μl/well. The plates were left overnight at 4° C. The next day plates were washed 3× with 300 μl/well of 1×PBS+0.1% Tween and blocked with 200 ul/well of 1×PBS+1% BSA blocking buffer for 1 hr at RT on a plate shaker. Plates were washed 3× with 300 μl/well of 1×PBS+0.1% Tween.
(§2) However, human-PD-L1 mAb² antibodies were diluted in 1×PBS+0.1% BSA buffer and diluted 1 in 2 from a starting working concentration of 0.066 μM over an 11 point titration. Titrated antibodies were added to the plates, 50 μl/well and left to incubate for 1 hr at R.T on a plate shaker. Plates were washed 3× with 300 μl/well of 1×PBS+0.1% Tween.
(§3) DELFIA® Eu-labelled Anti-human IgG (Perkin-Elmer) was diluted 1:500 in DELFIA Assay buffer (Perkin-Elmer) and added to the assay plate (50 μl/well), left to incubate for 1 hr at RT on a plate shaker. […] After incubation, assay was read on Envision plate reader (Perkin Elmer), Time-resolved fluorescence (TRF) was measured at 615 nm.
Background: ELISA stands for enzyme-linked immunosorbent assay.

The target of test [2] is T2, mouse ICOS expressed on CHO cells (mouse, UniProt Q9WVS0 21-200).
T2 construct: also called CHO-S cells transfected with mouse ICOS; mICOS
T2 sequence (looked up): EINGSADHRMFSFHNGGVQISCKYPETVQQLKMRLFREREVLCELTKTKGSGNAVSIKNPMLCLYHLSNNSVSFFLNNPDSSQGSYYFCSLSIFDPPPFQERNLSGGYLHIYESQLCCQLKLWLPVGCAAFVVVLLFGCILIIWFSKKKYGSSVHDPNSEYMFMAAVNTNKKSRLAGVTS
The test can be described thus: Flow cytometry on CHO-S mouse ICOS cells, anti-human IgG AF647, N=2. As to the method: CHO—S cells transfected with either human ICOS or mouse ICOS were resuspended in FACS buffer (PBS+1% w/v BSA+0.1% w/v sodium azide) and transferred to a 96-well V-bottom plate (Greiner) at a density of 1×10⁵ cells per well. mAb and mAb² were titrated in FACS buffer, 1 in 3 dilution across 11 points from a starting working concentration of 400 nM. Plates were centrifuged at 300×g for 3 minutes, supernatant discarded and 50 μL mAb or mAb² solution were added to cells and incubated at 4° C. for 1 hour. Cells were washed with 150 μL of PBS and centrifuged at 300×g for 3 minutes, supernatant was discarded and cell pellet resuspended in 150 μL PBS added. This wash step was repeated twice. Bound mAb or mAb² was detected by addition of 50 μL of anti-human 647 (Jackson ImmunoResearch) diluted to 3 ug/ml in FACS buffer. Cells were incubated for 1 hour at 4° C. in the dark. Cells were washed with 150 μL of PBS and centrifuged at 300 g for 3 minutes, supernatant was discarded and cell pellet resuspended in 150 μL PBS added. This wash step was repeated twice. Cells were fixed with 25 μL 4% v/v paraformaldehyde, incubated for 20 minutes at 4° C., cells were pelleted by centrifugation at 300×g and the supernatant discarded. […] AlexaFluor 647 signal intensity (geometric mean) was measured by flow cytometry using a Beckman Coulter CytoFLEX instrument.

Test [3] concerns the target T3, human ICOS-mFc (Chimerigen) (human, UniProt Q9Y6W8 21-140).
T3 construct: Bought; also called recombinant human ICOS protein; hICOS; not shown: mouse Fc of the bought fusion
T3 sequence: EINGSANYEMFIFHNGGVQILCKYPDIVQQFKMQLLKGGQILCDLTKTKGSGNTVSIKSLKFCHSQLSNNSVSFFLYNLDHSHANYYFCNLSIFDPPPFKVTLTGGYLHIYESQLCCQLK
The test can be described thus: HTRF, human ICOS-mFc, competitor human B7-H2-Alexa 647, n3. On the procedure:
(§4) 5 μl of human ICOS-mFc (Chimerigen) at 20 nM (5 nM final) or 5 ul of mouse ICOS-mFc (Chimerigen) at 4 nM (1 nM final) were added to relevant assay wells. Plate was incubated for 1 hour (hr) at room temperature (RT).
(§5) After incubation, assay was read on Envision plate reader (Perkin Elmer) using a standard HTRF protocol. 620 nm and 665 nm channel values were exported to Microsoft Excel and % Delta-F and % Neutralisation calculations performed. Titration curves and IC50 values [M] were plotted using Graphpad (Prism). IC50 values were calculated by first transforming the data using equation X=Log(X). The transformed data was then fitted using nonlinear regression, using fitting algorithm, log (inhibitor) vs. response—variable slope (four parameters).
In general terms: TR-FRET usually uses a lanthanide donor and a delayed reading to cut background.

Test [4] has as its target T3, human ICOS-mFc (Chimerigen). The test can be described thus: DELFIA ELISA on coated human ICOS-mFc, N=2. On the procedure: as §1, §2, §3
The target of test [5] is FcγRIIIa on effector cells (Jurkat NFAT luciferase v-variant effector cells, Promega) (human, UniProt P08637 17-254). The test can be described thus: cell-based or functional assay.
Chain of FcγRIIIa on effector cells (Jurkat NFAT luciferase v-variant effector cells, Promega) (P08637 other isoform, or with tags, fused parts or gaps mutant limits assumed): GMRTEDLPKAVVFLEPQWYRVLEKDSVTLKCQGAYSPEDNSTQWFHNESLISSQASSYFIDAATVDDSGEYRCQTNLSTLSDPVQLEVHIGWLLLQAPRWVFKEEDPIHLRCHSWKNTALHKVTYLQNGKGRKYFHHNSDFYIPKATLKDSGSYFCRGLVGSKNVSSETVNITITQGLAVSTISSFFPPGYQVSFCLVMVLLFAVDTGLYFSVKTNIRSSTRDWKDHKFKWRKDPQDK
Test [6] addresses T1, mouse ICOS-mFc (Chimerigen). The experiment in a line: HTRF, mouse ICOS-mFc, competitor mouse B7-H2-Alexa 647, n3. On the procedure:
as §4, §5

B1: STIM003 (antibody, human IgG1, kappa)
heavy: not shown
light: EIVLTQSPGTLSLSPGERATLSCRASQSVSRSYLAWYQQKRGQAPRLLIYGASSRATGIPDRFSGDGSGTDFTLSISRLEPEDFAVYYCHQYDMSPFTFGPGTKVDIKRTVAAPSVFIFPPSDEQLKSGTASVVCLLNNFYPREAKVQWKVDNALQSGNSQESVTEQDSKDSTYSLSSTLTLSKADYEKHKVYACEVTHQGLSSPVTKSFNRGEC
notes: Anti-ICOS monospecific antibody, tested as human IgG1; also called STIM003 monoclonal IgG1 antibody
Broadly, the EC50 is the midpoint of the concentration-response curve. A high value points to weaker potency. By IC50 is commonly meant the midpoint of a concentration-inhibition curve. Low readings indicate greater potency in that assay, high ones weaker potency in that assay. Regarding B1, the concentration for a half-maximal effect (EC50) in test [1] stood at 0.416 nM. The same molecule had an EC50 in test [2] of 2.19 nM. The molecule further returned an IC50 in test [3] of 0.71 nM. Further, the concentration giving a half-maximal response (EC50) in test [4] is 1.04 nM. For the same molecule, in test [5], the “EC50 of luciferase fold of induction, CHO human ICOS target cells, N=1” value was found to be 0.326 nM; the “EC50 of luciferase fold of induction, CHO human ICOS target cells, N=2” value was 0.477 nM; the “EC50 of luciferase fold of induction, CHO human ICOS target cells, N=3” value stood at 0.24 nM; the “EC50 of luciferase fold of induction, CHO human ICOS target cells, mean” value turned out to be 0.347 nM. In test [5], the “EC50 of luciferase fold of induction, CHO mouse ICOS target cells, N=1” value turned out to be 0.508 nM; the “EC50 of luciferase fold of induction, CHO mouse ICOS target cells, N=2” value is 0.754 nM; the “EC50 of luciferase fold of induction, CHO mouse ICOS target cells, N=3” value worked out at 0.703 nM; the “EC50 of luciferase fold of induction, CHO mouse ICOS target cells, mean” value was 0.655 nM. This molecule also came in with an IC50 in test [6] of 0.11 nM.

B2: STIM001 (antibody, human IgG1, kappa)
heavy: not shown
light: DIVMTQSPLSLPVTPGEPASISCRSSQSLLHSNEYNYLDWYLQKPGQSPQLLIFLGSNRASGVPDRFSGSGSGTDFTLKITRVEAEDVGIYYCMQSLQTPLTFGGGTKVEIKRTVAAPSVFIFPPSDEQLKSGTASVVCLLNNFYPREAKVQWKVDNALQSGNSQESVTEQDSKDSTYSLSSTLTLSKADYEKHKVYACEVTHQGLSSPVTKSFNRGEC
notes: Anti-ICOS monospecific antibody, tested as human IgG1; also called STIM001 monoclonal IgG1 antibody
The molecule B2 came in with an EC50 in test [1] of 11.4 nM. Also, the EC50 in test [2] was determined as 5.06 nM. Besides, the IC50 in test [3] came to 2.33 nM. In test [4], this molecule gave an EC50 of 25.5 nM. Besides, in test [5], the “EC50 of luciferase fold of induction, CHO human ICOS target cells, N=1” value is 0.456 nM; the “EC50 of luciferase fold of induction, CHO human ICOS target cells, N=2” value stood at 0.247 nM; the “EC50 of luciferase fold of induction, CHO human ICOS target cells, N=3” value stood at 0.147 nM; the “EC50 of luciferase fold of induction, CHO human ICOS target cells, mean” value was determined as 0.283 nM. Besides, in test [5], the “EC50 of luciferase fold of induction, CHO mouse ICOS target cells, N=1” value is 0.479 nM; the “EC50 of luciferase fold of induction, CHO mouse ICOS target cells, N=2” value turned out to be 0.534 nM; the “EC50 of luciferase fold of induction, CHO mouse ICOS target cells, N=3” value was found to be 0.579 nM; the “EC50 of luciferase fold of induction, CHO mouse ICOS target cells, mean” value worked out at 0.53 nM. The IC50 in test [6] was 9.25 nM.
